Molecular target: recombinant human iduronate-2 sulfatase (rhIDS) (human) (UniProt P22304)
Assay: cell-based or functional assay

Sequence of recombinant human iduronate-2 sulfatase (rhIDS) (human) (P22304 26-550 limits assumed): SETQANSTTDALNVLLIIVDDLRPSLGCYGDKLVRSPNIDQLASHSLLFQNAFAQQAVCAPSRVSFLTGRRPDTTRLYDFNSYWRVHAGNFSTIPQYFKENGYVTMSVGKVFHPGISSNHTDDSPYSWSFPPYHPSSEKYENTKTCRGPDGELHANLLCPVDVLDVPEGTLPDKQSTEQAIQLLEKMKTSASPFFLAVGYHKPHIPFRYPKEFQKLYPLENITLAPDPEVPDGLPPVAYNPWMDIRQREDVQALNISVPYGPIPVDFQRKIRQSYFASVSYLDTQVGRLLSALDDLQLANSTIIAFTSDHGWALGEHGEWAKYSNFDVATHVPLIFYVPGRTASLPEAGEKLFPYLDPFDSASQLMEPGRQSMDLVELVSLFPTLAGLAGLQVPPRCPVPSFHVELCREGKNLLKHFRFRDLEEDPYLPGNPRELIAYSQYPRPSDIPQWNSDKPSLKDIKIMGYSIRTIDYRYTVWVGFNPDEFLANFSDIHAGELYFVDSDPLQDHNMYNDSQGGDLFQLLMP

Substance | % FGly (LC-MS); 1 copy rhIDS, 1 copy BtFGE (POX) [%] | % FGly (LC-MS); 1 copy rhIDS, 1 copy BtFGE (POX), 1 copy hPDI (POX) [%] | % FGly (LC-MS); co-expression with DpFGE [%]
Bos taurus FGE fusion protein (Lip2pre-BtFGE-6HIS-HDEL) (from UniProt Q0P5L5 34-374) (enzyme) | 100 | 100 | –
Dendroctonus ponderosa Lip2-DpFGE-His6-HDEL fusion construct (enzyme) | – | – | 25
